Laboratory results published in patent US20030068675, “Position dependent recognition of GNN nucleotide triplets by zinc fingers” (published 2003).

Columns and labels:
Experiment in all cases: EMSA
Conditions in all cases: tags: MBP fusion
ZFP SBS#1274 = ZFP SBS#1274 (synthetic)
Summary of the method: (§1)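 Purified ZFP was titrated against labeled double-stranded target (1 nM or lower, at least 10-fold below expected Kd) carrying the natural binding site with flanks. Binding buffer was 10 mM Tris pH 7.5, 100 mM KCl, 1 mM MgCl2, 0.1 mM ZnCl2, 5 mM DTT, 10% glycerol, 0.02% BSA, with equilibration for at least 45 min. Bound and free target were separated on a 10% polyacrylamide gel.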

ZFP SBS#1275 = ZFP SBS#1275 (synthetic)
ZFP SBS#1275 (synthetic), sequence (chain, as listed by the source): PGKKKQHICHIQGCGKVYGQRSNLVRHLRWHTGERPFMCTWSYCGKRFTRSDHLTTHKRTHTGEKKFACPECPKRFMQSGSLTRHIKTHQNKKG
Summary of the method: as §1

ZFP SBS#1246 = target: T1, ZFP SBS#1246 (synthetic)
T1 chain: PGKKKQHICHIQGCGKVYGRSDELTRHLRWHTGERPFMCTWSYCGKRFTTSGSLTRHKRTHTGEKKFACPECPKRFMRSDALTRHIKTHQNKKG
Summary of the method: as §1

ZFP SBS#1247 = target: T2, ZFP SBS#1247 (synthetic)
T2 chain: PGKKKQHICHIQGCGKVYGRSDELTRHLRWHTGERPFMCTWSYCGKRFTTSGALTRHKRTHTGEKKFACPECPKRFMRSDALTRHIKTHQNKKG
Summary of the method: as §1

ZFP SBS#1287 = target: T3, ZFP SBS#1287 (synthetic)
T3 chain: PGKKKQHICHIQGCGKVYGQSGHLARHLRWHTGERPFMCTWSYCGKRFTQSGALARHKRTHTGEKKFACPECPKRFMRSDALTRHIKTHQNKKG
Summary of the method: as §1

ZFP SBS#1258 = target: T4, ZFP SBS#1258 (synthetic, UniProt P08047)
T4 chain: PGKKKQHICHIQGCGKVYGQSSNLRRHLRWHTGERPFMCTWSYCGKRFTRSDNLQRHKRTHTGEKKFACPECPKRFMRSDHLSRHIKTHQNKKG
Summary of the method: as §1

ZFP SBS#1257 = target: T5, ZFP SBS#1257 (synthetic, UniProt P08047)
T5 chain: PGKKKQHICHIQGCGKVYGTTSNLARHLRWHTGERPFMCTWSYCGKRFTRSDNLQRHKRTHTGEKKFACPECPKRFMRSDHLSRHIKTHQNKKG
Summary of the method: as §1

ZFP SBS#541 = target: T6, ZFP SBS#541 (synthetic, UniProt P08047)
T6 chain: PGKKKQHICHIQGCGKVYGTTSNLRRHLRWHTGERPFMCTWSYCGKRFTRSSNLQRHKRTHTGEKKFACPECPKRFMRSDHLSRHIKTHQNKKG
Summary of the method: as §1

ZFP SBS#1279 = ZFP SBS#1279 (synthetic)
Summary of the method: as §1

ZFP SBS#1241 = target: T7, ZFP SBS#1241 (synthetic)
T7 chain: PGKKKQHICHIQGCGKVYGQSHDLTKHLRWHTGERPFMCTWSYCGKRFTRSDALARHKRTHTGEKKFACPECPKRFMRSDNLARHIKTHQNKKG
Summary of the method: as §1

ZFP SBS#1266 = target: T8, ZFP SBS#1266 (synthetic)
T8 chain: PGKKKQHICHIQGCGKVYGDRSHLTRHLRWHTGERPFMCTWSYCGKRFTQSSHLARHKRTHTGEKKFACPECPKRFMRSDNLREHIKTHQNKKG
Summary of the method: as §1

ZFP SBS#1288 = target: T9, ZFP SBS#1288 (synthetic)
T9 chain: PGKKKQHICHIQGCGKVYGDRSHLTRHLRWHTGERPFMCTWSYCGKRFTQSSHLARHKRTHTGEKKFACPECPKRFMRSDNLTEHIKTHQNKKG
Summary of the method: as §1

ZFP SBS#1269 = target: T10, ZFP SBS#1269 (synthetic)
T10 chain: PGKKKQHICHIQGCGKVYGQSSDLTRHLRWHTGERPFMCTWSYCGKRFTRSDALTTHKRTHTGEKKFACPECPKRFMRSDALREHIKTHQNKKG
Summary of the method: as §1

ZFP SBS#1268 = target: T11, ZFP SBS#1268 (synthetic)
T11 chain: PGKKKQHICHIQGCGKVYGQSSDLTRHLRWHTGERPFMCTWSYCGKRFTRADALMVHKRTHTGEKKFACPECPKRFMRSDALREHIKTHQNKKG
Summary of the method: as §1

ZFP SBS#490 = ZFP SBS#490 (synthetic)
ZFP SBS#490 (synthetic), sequence (chain, as listed by the source): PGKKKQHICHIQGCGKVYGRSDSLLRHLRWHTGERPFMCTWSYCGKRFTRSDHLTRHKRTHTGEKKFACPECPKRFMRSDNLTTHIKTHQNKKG
Summary of the method: as §1

ZFP SBS#1277 = target: T12, ZFP SBS#1277 (synthetic)
T12 chain: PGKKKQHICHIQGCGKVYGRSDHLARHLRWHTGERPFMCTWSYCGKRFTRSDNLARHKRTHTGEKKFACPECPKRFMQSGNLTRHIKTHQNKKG
Summary of the method: as §1

ZFP SBS#1282 = target: T13, ZFP SBS#1282 (synthetic)
T13 chain: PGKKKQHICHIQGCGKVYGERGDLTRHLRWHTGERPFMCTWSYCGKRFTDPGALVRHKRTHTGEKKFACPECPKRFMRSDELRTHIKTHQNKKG
Summary of the method: as §1

ZFP SBS#1250 = ZFP SBS#1250 (synthetic)
ZFP SBS#1250 (synthetic), sequence (chain, as listed by the source): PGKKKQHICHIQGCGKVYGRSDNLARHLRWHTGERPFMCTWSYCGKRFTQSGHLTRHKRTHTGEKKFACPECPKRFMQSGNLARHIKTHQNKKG
Summary of the method: as §1

ZFP SBS#1237 = ZFP SBS#1237 (synthetic)
ZFP SBS#1237 (synthetic), sequence (chain, as listed by the source): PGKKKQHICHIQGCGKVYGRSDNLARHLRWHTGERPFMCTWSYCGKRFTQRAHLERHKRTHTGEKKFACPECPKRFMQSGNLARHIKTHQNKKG
Summary of the method: as §1

ZFP SBS#1253 = target: T14, ZFP SBS#1253 (synthetic)
T14 chain: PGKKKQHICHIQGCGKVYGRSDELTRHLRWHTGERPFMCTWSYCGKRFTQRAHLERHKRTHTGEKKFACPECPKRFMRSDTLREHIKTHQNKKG
Summary of the method: as §1

ZFP SBS#1249 = target: T15, ZFP SBS#1249 (synthetic)
T15 chain: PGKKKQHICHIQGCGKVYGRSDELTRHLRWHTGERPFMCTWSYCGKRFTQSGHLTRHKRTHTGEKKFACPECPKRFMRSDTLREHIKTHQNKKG
Summary of the method: as §1

ZFP SBS#1271 = target: T16, ZFP SBS#1271 (synthetic)
T16 chain: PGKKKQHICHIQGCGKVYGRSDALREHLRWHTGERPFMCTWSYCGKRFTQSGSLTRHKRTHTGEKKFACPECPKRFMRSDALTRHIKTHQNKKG
Summary of the method: as §1

ZFP SBS#1004 = target: T17, ZFP SBS#1004 (synthetic)
T17 chain: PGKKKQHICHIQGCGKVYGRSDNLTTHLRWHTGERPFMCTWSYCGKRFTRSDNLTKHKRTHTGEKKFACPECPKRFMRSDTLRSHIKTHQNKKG
Summary of the method: as §1

ZFP SBS#998 = ZFP SBS#998 (synthetic)
ZFP SBS#998 (synthetic), sequence (chain, as listed by the source): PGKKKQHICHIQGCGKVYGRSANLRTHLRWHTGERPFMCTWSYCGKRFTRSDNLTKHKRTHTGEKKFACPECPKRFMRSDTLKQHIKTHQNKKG
Summary of the method: as §1

ZFP SBS#1255 = target: T18, ZFP SBS#1255 (synthetic)
T18 chain: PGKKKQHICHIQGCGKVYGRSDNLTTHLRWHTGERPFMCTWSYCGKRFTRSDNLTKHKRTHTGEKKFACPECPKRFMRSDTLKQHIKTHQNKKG
Summary of the method: as §1

ZFP SBS#1020 = target: T19, ZFP SBS#1020 (synthetic)
T19 chain: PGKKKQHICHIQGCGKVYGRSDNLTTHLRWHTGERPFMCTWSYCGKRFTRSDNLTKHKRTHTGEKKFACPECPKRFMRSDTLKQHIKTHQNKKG
Summary of the method: as §1

ZFP SBS#1003 = target: T20, ZFP SBS#1003 (synthetic)
T20 chain: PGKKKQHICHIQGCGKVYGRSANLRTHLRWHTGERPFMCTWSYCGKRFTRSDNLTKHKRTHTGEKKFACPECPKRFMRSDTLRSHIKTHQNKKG
Summary of the method: as §1

ZFP SBS#1236 = ZFP SBS#1236 (synthetic)
ZFP SBS#1236 (synthetic), sequence (chain, as listed by the source): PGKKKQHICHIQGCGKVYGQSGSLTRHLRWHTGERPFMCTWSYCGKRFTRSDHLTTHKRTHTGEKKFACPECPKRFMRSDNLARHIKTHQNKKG
Summary of the method: as §1

ZFP SBS#1278 = target: T21, ZFP SBS#1278 (synthetic)
T21 chain: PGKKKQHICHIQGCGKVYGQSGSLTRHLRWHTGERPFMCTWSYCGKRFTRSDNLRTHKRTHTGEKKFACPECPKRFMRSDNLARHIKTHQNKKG
Summary of the method: as §1

ZFP SBS#1234 = ZFP SBS#1234 (synthetic)
ZFP SBS#1234 (synthetic), sequence (chain, as listed by the source): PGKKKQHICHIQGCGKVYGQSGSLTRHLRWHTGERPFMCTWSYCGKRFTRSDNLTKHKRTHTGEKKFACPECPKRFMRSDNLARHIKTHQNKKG
Summary of the method: as §1

ZFP SBS#1260 = target: T22, ZFP SBS#1260 (synthetic)
T22 chain: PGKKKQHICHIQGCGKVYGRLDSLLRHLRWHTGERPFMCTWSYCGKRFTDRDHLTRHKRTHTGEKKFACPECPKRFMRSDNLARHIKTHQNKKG
Summary of the method: as §1

ZFP SBS#1259 = target: T23, ZFP SBS#1259 (synthetic)
T23 chain: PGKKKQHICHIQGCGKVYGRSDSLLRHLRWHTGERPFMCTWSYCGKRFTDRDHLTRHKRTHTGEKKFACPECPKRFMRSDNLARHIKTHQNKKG
Summary of the method: as §1

ZFP SBS#261 = target: T24, ZFP SBS#261 (synthetic)
T24 chain: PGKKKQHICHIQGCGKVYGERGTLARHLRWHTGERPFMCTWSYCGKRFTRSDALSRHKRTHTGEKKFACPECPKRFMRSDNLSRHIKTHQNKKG
Summary of the method: as §1

ZFP SBS#1265 = target: T25, ZFP SBS#1265 (synthetic)
T25 chain: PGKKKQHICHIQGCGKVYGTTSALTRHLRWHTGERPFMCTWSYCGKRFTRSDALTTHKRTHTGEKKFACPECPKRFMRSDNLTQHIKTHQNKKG
Summary of the method: as §1

ZFP SBS#1264 = target: T26, ZFP SBS#1264 (synthetic)
T26 chain: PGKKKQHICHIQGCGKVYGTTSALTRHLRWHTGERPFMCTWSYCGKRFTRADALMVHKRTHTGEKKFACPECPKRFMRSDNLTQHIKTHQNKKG
Summary of the method: as §1

ZFP SBS#1274 (synthetic), sequence (chain, as listed by the source): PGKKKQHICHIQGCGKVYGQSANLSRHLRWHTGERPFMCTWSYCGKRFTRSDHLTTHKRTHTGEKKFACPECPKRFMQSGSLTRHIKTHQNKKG

B1: GCATGGGAA (dsDNA)
DNA 1: GCATGGGAA
DNA 2: TTCCCATGC
- Kd (ZFP SBS#1274): 0.306 nM
- Kd (ZFP SBS#1275): 0.326 nM

B2: GTGGTTGCG (dsDNA)
DNA 1: GTGGTTGCG
DNA 2: CGCAACCAC
- Kd (ZFP SBS#1246): 0.051 nM
- Kd (ZFP SBS#1247): 0.117 nM

B3: GTGGTAGGA (dsDNA)
DNA 1: GTGGTAGGA
DNA 2: TCCTACCAC
- Kd (ZFP SBS#1287): 0.152 nM

B4: GGGGAGGAT (dsDNA)
DNA 1: GGGGAGGAT
DNA 2: ATCCTCCCC
- Kd (ZFP SBS#1258): 2 nM
- Kd (ZFP SBS#1257): 1 nM
- Kd (ZFP SBS#541): 3 nM

B5: GAGGTGTCA (dsDNA)
DNA 1: GAGGTGTCA
DNA 2: TGACACCTC
- Kd (ZFP SBS#1279): 0.025 nM
- Kd (ZFP SBS#1241): 0.027 nM

B6: CAGGGTGGC (dsDNA)
DNA 1: CAGGGTGGC
DNA 2: GCCACCCTG
- Kd (ZFP SBS#1266): 6.1 nM
- Kd (ZFP SBS#1288): 4.1 nM

B7: CTGTTGGCT (dsDNA)
DNA 1: CTGTTGGCT
DNA 2: AGCCAACAG
- Kd (ZFP SBS#1269): 12.3 nM
- Kd (ZFP SBS#1268): 1.52 nM

B8: TAGGGGGTGG (dsDNA)
DNA 1: TAGGGGGTGG
DNA 2: CCACCCCCTA
- Kd (ZFP SBS#490): 1.5 nM

B9: GAAGAGGGG (dsDNA)
DNA 1: GAAGAGGGG
DNA 2: CCCCTCTTC
- Kd (ZFP SBS#1277): 0.421 nM

B10: TCGGTCGCC (dsDNA)
DNA 1: TCGGTCGCC
DNA 2: GGCGACCGA
- Kd (ZFP SBS#1282): 74.1 nM

B11: GAAGGAGAG (dsDNA)
DNA 1: GAAGGAGAG
DNA 2: CTCTCCTTC
- Kd (ZFP SBS#1250): 0.31 nM
- Kd (ZFP SBS#1237): 0.065 nM

B12: CCGGGAGCG (dsDNA)
DNA 1: CCGGGAGCG
DNA 2: CGCTCCCGG
- Kd (ZFP SBS#1253): 0.228 nM
- Kd (ZFP SBS#1249): 0.26 nM

B13: GTGGCACTG (dsDNA)
DNA 1: GTGGCACTG
DNA 2: CAGTGCCAC
- Kd (ZFP SBS#1271): 0.915 nM

B14: ACGTAGTAG (dsDNA)
DNA 1: ACGTAGTAG
DNA 2: CTACTACGT
- Kd (ZFP SBS#1004): 1.4 nM
- Kd (ZFP SBS#998): 0.23 nM
- Kd (ZFP SBS#1255): 0.69 nM
- Kd (ZFP SBS#1020): 0.69 nM
- Kd (ZFP SBS#1003): 0.118 nM

B15: GAGTAGGCA (dsDNA)
DNA 1: GAGTAGGCA
DNA 2: TGCCTACTC
- Kd (ZFP SBS#1236): 0.065 nM
- Kd (ZFP SBS#1278): 0.019 nM
- Kd (ZFP SBS#1234): 0.101 nM

B16: GAGTGTGTG (dsDNA)
DNA 1: GAGTGTGTG
DNA 2: CACACACTC
- Kd (ZFP SBS#1260): 1.8 nM
- Kd (ZFP SBS#1259): 1.5 nM

B17: GAGGTGGCC (dsDNA)
DNA 1: GAGGTGGCC
DNA 2: GGCCACCTC
- Kd (ZFP SBS#261): 0.5 nM

B18: AAGTTGGTT (dsDNA)
DNA 1: AAGTTGGTT
DNA 2: AACCAACTT
- Kd (ZFP SBS#1265): 0.077 nM
- Kd (ZFP SBS#1264): 0.21 nM
